Counter-ions that a name gives are not always drawn. Starred links: 1 amine or outer side, 2 acyl side, 3 side chain; linkers in the order of their positions; H or OH if unused. Positions of bridges follow the written chain, without caps; N, C: chain ends. Non-standard residues stand in square brackets, D forms with d. Residues, ends and D or L forms follow the SMILES beside them. Chains are numbered I, II in the order given. *: point of attachment. TATA = O=C(CC[*:1])N1CN(C(=O)CC[*:2])CN(C(=O)CC[*:3])C1; Dolaproine = CO[C@@H]([C@@H]1CCCN1)[C@@H](C)C(=O)O; Dil = CC[C@H](C)[C@H](NC)[C@@H](CC(=O)O)OC; X2 = O=C(CCCC(=O)[*:2])NCCC(=O)[*:1]; PABC = O=C(OCc1ccc(N[*:1])cc1)[*:2]; X1 = C[C@@H](N*)[C@@H](O)c1ccccc1; Hyp = O=C(O)[C@@H]1C[C@@H](O)CN1; hArg = N=C(N)NCCCC[C@H](N)C(=O)O; Cit = NC(=O)NCCC[C@H](N)C(=O)O; Pen = CC(C)(S)[C@H](N)C(=O)O; NMeV = CN[C@H](C(=O)O)C(C)C; Sar = CNCC(=O)O
Assay: Stability incubated in human plasma for 72 hours
Assay type: in vitro ADME, Humans
Method: The corresponding incubation plates, including T0, T10, T30, T60, T120, and T240 incubation plates, were added with a 2 μL working solution of the compound to be tested (100 μM). Three parallel wells were prepared for each sample. Then, 98 μL of blank plasma from SD rats, Cynomolgus macaques, and humans was added to the corresponding incubation plates to which the working solution had been added. All samples were incubated in a 37° C. water bath. […] At the end of each incubation time point, the corresponding incubation plate was removed, added with stop buffer, precipitated, and centrifuged for 20 minutes. Then, 150 μL of the supernatant was analyzed by the LC-MS/MS method. The concentration of the compound to be tested in the sample was semi-quantitatively determined by the liquid chromatography-tandem mass spectrometry (LC-MS/MS) method.
The experimental results obtained using the above method but extending the incubation time of the compound to be tested with human plasma to 72 hours are shown in Table 22.

CC[C@H](C)[C@@H]([C@@H](CC(=O)N1CCC[C@H]1[C@H](OC)[C@@H](C)C(=O)N[C@H](C)[C@@H](O)c1ccccc1)OC)N(C)C(=O)[C@@H](NC(=O)[C@H](C(C)C)N(C)C(=O)OCc1ccc(NC(=O)[C@H](CCCNC(N)=O)NC(=O)[C@@H](NC(=O)CCCC(=O)NCCC(=O)N(C)CC(=O)N(C)CC(=O)N(C)CC(=O)N(C)CC(=O)N(C)CC(=O)N(C)CC(=O)N(C)CC(=O)N(C)CC(=O)N(C)CC(=O)N(C)CC(=O)N[C@H]2CCCCNC(=O)C[C@@H](C(=O)N[C@H]3CSCCC(=O)N4CN5CN(C4)C(=O)CCSC(C)(C)[C@@H](C(N)=O)NC(=O)[C@H](CCCCNC(=N)N)NC(=O)[C@H](Cc4c[nH]c6ccccc46)NC(=O)[C@@H](CC(=O)O)NC(=O)[C@@H]4CCCN4C(=O)[C@H](Cc4c[nH]cn4)NC(=O)[C@H](CC(C)C)NC(=O)[C@H](CSCCC5=O)NC(=O)[C@H](CC(C)C)NC(=O)[C@@H]4CCCN4C(=O)[C@H](CC(N)=O)NC(=O)[C@H](C(C)C)NC(=O)[C@H](CC(C)C)NC(=O)[C@@H]4C[C@@H](O)CN4C3=O)NC(=O)[C@H](CCCCNC(=N)N)NC2=O)C(C)C)cc1)C(C)C [Acetate salt of PDC_8] (I: [Sar][Sar][Sar][Sar][Sar][Sar][Sar][Sar][Sar][Sar]K[hArg]DC[Hyp]LVNPLCLHP[dD]W[hArg][Pen]-NH2 / II: V[Cit][PABC][NMeV]V[Dil][Dolaproine]-X1; lactam I:11-I:13; linker I:14-I:21-I:28 via TATA; linker I:N-II:N via X2)
MMAE generation % (test time point 0): 0.1%
PDC_8 remaining % (test time point 0): 100.0%
MMAE generation % (test time point 0.5): 0.2%
remaining at 0.5 h, 2 µM (test time point 0.5, read-out: PDC_8 remaining %): 96.3%
MMAE generation % (test time point 1): 0.5%
remaining at 1 h, 2 µM (test time point 1, read-out: PDC_8 remaining %): 103%
MMAE generation % (test time point 2): 0.5%
remaining at 2 h, 2 µM (test time point 2, read-out: PDC_8 remaining %): 86.6%
MMAE generation % (test time point 4): 0.6%
remaining at 4 h, 2 µM (test time point 4, read-out: PDC_8 remaining %): 101%
MMAE generation % (test time point 24): 0.6%
remaining at 24 h, 2 µM (test time point 24, read-out: PDC_8 remaining %): 89.9%
MMAE generation % (test time point 48): 0.0%
remaining at 48 h, 2 µM (test time point 48, read-out: PDC_8 remaining %): 96%
MMAE generation % (test time point 72): 3.2%
remaining at 72 h, 2 µM (test time point 72, read-out: PDC_8 remaining %): 78%

Reference: US20250121076A1, “POLYPEPTIDE DRUG CONJUGATE HAVING NOVEL STRUCTURE AND APPLICATION THEREOF” (MEDSHINE DISCOVERY INC., priority 2021, published 2025)
